Patent US9163071B2

Key:
[1] = target: NF-κB p65, endogenous in the cells (activated by TNFα) (human) (UniProt Q04206)
[2] = target: CIAS1-PYD (pyrin only CIAS1 construct) (Homo sapiens (Human)) (UniProt Q96P20)
[3] = target: Myc-ASC (Myc-tagged Apoptosis speck protein containing a CARD) (Homo sapiens (Human)) (UniProt Q9ULZ3)
[4] = target: NF-κB p65, endogenous in the cells (activated by TNFα) (human) (UniProt Q04206); remark: listed apart in the source

Row | Substance | TNFα-stimulated 3X-NF-κB-Luc reporter (luciferase) [1] [fold] | percentage of ASC expressing cells containing specks (CIAS1-PYD co-expressed) [2] [%] | percentage of ASC expressing cells containing specks (CIAS1-PYD co-expressed) [3] [%] | p65 localization pattern after TNFa treatment (immunofluorescence, cells scored) [4] [%]
1 | FLAG-POP2 (POP2 with an N-terminal Flag epitope in pcDNA 3.1) | 3 |  |  | 
2 | GFP-POP2 (GFP fusion of pyrin-only protein 2) |  | 10 | 10 | 40
